In the RNAGym collection of RNA variant scans (doi:10.1093/nar/gkz1192):

B1: CPEB3 Ribozyme (parent)
chain: UAACAGGGGGCCACAGCAGAAGCGUUCACGUCGCAGCCCCUGUCAGAUUCUGGUGAAUCUGCGAAUUCUGCUGUAUAUCUC

Variants of: B1
Experiment: self-cleavage, relative activity (ratio to wild type); higher = more cleavage; in vitro, sequencing
Outline: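 For each CPEB3 ribozyme variant, relative activity is its cleaved/total read fraction divided by the unmutated ribozyme's. Barcoded error-prone PCR libraries were transcribed by T7 RNA polymerase (5 hours, 37°C) and held in DNase I for 15 min before an EDTA stop, with cleavage occurring throughout. Template-switching reverse transcription and Illumina sequencing were used to read the RNAs. A 5-read minimum applied, and results are the mean of three batches.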

| Variant | self-cleavage |
| --- | --- |
| U43G A65G | 0.34 |
| U43C U58A | 0.29 |
| U43C U58G | 0.19 |
| U43C U58C | 0.23 |
| A45C A75U | 0.5 |
| A45C A75G | 0.14 |
| U43C U78A | 0.63 |
| U43C U78C | 0.49 |
| U43C U78G | 0.65 |
| C44U A47G | 0.35 |
| C44A U66G | 0.23 |
| A45G A75C | 1.01 |
| A45G A75G | 0.77 |
| A45G A75U | 0.91 |
| U43G U67C | 0.11 |
| C44A A65G | 0.2 |
| C44U U76C | 0.25 |
| C44U U76A | 0.14 |
| A45G U76A | 0.96 |
| C44U U54A | 0.36 |
| C44U U54C | 0.32 |
| A45C U60C | 0.41 |
| A45C U60A | 0.33 |
| U43G C62U | 0.26 |

| Variant | self-cleavage |
| --- | --- |
| U43G C62G | 0.43 |
| C44U U69C | 0.17 |
| C44U U69A | 0.13 |
| A45G U67A | 0.38 |
| A45G U67C | 0.34 |
| A45G U54G | 0.56 |
| A45G U54C | 0.88 |
| A45G U54A | 0.85 |
| A45G U60C | 1.13 |
| A45G U60G | 0.25 |
| A45G U60A | 0.53 |
| U43C U51G | 0.75 |
| U43C U51A | 0.71 |
| U43C U51C | 0.77 |
| U43G G70A | 0.34 |
| C44G G63A | 0.65 |
| C44A A45G | 0.61 |
| A45G C79A | 1.13 |
| A45G C79G | 1.12 |
| A45C U78C | 0.42 |
| A45G U49A | 0.42 |
| A45G U49G | 0.1 |
| A45G U49C | 0.27 |
| U43G G53A | 0.3 |

| Variant | self-cleavage |
| --- | --- |
| U43G A75U | 0.35 |
| U43G A75G | 0.24 |
| A45C A56G | 0.26 |
| A45C A56U | 0.25 |
| A45C A56C | 0.42 |
| U43C U54A | 0.69 |
| U43C U54C | 0.32 |
| U43C U54G | 0.49 |
| U43G | 0.28 |
| U43G U58C | 0.14 |
| A45C G55C | 0.11 |
| A45G U72C | 0.98 |
| A45G U72A | 0.62 |
| A45C U51A | 0.41 |
| A45C U51C | 0.32 |
| A45C A57G | 0.26 |
| U43G U69C | 0.35 |
| U43G U49C | 0.28 |
| C44U U51A | 0.35 |
| C44U U51C | 0.1 |
| A45G G52U | 0.94 |
| A45G G52A | 0.94 |
| A45G G52C | 0.91 |
| C44G A45U | 0.13 |

| Variant | self-cleavage |
| --- | --- |
| C44G A45G | 0.34 |
| C44U U78A | 0.3 |
| C44U U78G | 0.12 |
| C44U U78C | 0.35 |
| A45C U72A | 0.38 |
| A45C U72C | 0.49 |
| A45G | 0.85 |
| A45C | 0.38 |
| C44A U74C | 0.63 |
| U43C G70U | 0.18 |
| U43C G70A | 0.31 |
| U43C G70C | 0.1 |
| C44A A56U | 0.21 |
| C44G U78C | 0.44 |
| U43C U74C | 0.89 |
| U43C U74A | 0.85 |
| U43C U74G | 0.86 |
| C44A A75G | 0.32 |
| C44U A65G | 0.13 |
| A45C U69C | 0.27 |
| A45C U69A | 0.14 |
| U43G A56G | 0.23 |
| U43G A56U | 0.36 |
| U43G A47U | 0.1 |

| Variant | self-cleavage |
| --- | --- |
| C44U G55A | 0.07 |
| U43C G73C | 1.19 |
| U43C G73U | 1.2 |
| U43C G73A | 1.13 |
| U43C A77U | 0.78 |
| U43C A77G | 0.58 |
| U43G U60C | 0.13 |
| U43G U60A | 0.15 |
| C44U | 0.31 |
| C44G | 0.52 |
| C44A | 0.43 |
| A45G G63A | 0.48 |
| A45G G63U | 0.74 |
| U43G U48C | 0.39 |
| U43G U48A | 0.2 |
| A45C G73A | 1.19 |
| U43C C81A | 0.92 |
| U43C C81U | 0.7 |
| C44A U76C | 0.37 |
| C44A A77G | 0.43 |
| C44U C81A | 0.11 |
| C44G A57G | 0.45 |
| A45C C81U | 0.45 |
| U43C C79A | 0.8 |

| Variant | self-cleavage |
| --- | --- |
| U43C C79U | 0.91 |
| C44G C68A | 0.3 |
| A45G U69C | 0.38 |
| A45G U69G | 0.32 |
| A45G U69A | 0.42 |
| U43C C44G | 0.09 |
| U43C C44U | 0.38 |
| A45C U66C | 0.31 |
| U43G G46A | 0.37 |
| U43C U80G | 1.01 |
| U43C U80A | 0.73 |
| U43C U80C | 0.68 |
| C44U A56G | 0.18 |
| C44A U51A | 0.11 |
| U43C C62A | 0.31 |
| U43C C62U | 0.3 |
| U43C C62G | 0.21 |
| A45G U48A | 0.39 |
| A45G U48C | 0.29 |
| A45G U48G | 0.19 |
| C44G A56G | 0.44 |
| C44G U67C | 0.18 |
| U43C C68G | 0.11 |
| U43C C68U | 0.32 |

| Variant | self-cleavage |
| --- | --- |
| U43C C68A | 0.28 |
| A45G U51A | 0.74 |
| A45G U51C | 0.7 |
| A45G U51G | 0.64 |
| A45C U76A | 0.5 |
| U43C U60A | 0.27 |
| U43C U60G | 0.3 |
| U43C U60C | 0.26 |
| C44U A75U | 0.31 |
| C44G A65U | 0.1 |
| U43C G53U | 0.6 |
| U43C G53A | 0.87 |
| U43C G53C | 0.88 |
| A45C U48C | 0.4 |
| U43G C81U | 0.08 |
| A45C U49C | 0.11 |
| C44U C62A | 0.14 |
| C44U U58C | 0.28 |
| C44G U80C | 0.78 |
| C44G U80A | 0.52 |
| C44G U72C | 0.54 |
| C44G U72G | 0.2 |
| U43C G63C | 0.3 |
